This series in a line: amyloid nucleation score (Sup35N fusion, yeast selection) (log enrichment); library NNK2; higher = more nucleation; inactive = no reads after selection. In outline:
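The nucleation score is the DiMSum log enrichment of output over input reads, centred on the mode score of non-aggregating sequences. Only sequences with 100 or more input reads were scored, using Illumina sequencing of input and output plasmid inserts. Psi-negative yeast expressing Sup35N fused to peptides of 20 random codons were induced 24 hours with 100 μM copper sulfate and grown 7 days at 30°C on medium lacking adenine and uracil.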

Amyloid nucleation score data for 139 substances are collected here from the supplement of paper PMC12042874.

± gives the uncertainty stated by the source.

The substance YIECFTSMQLP displayed an amyloid nucleation score of -0.397 ± 0.79.
Under IIFDNFLEMVAILWLLVCCY stands -1.66 ± 0.76; under KYGNFVFTFLLINPF, “inactive”; under STCLQD, -0.966 ± 1.1.
Under SYFEMAYEWYCMNWMGEVIK stands 9.197 ± 0.054; under ISWIFLKSAFTELAVFWDFI, 0.726 ± 0.46.
Under FSEWRIGKNMIFCDVIDVCE stands 1.94 ± 0.089; under GLCKTVSWRNSSLEKDLFGR, -0.813 ± 0.78; under IYGQCWVFQNLLRLRVSV, 0.119 ± 0.76.
Turning to GSYVTAISAHFVGKLCASRI, the amyloid nucleation score came out at 0.343 ± 0.8.
Under LVWGVP stands -0.945 ± 0.76; under SPAQCIGVCNRLKLYCST, 0.262 ± 0.45; under YTAQRLNSTYI, -0.506 ± 1.
Under YLIDFRTRWIRISKA stands -0.695 ± 0.61; under SRYVPMSFY, 0.125 ± 0.79.
In the case of VIGRCDSL, the amyloid nucleation score entry is “inactive”.
Under SDMYM stands -0.324 ± 1.1; under FASCRIVSRG, “inactive”; under LNGLDPSNAHMIYYLYTSYL, -1.25 ± 0.54.
The substance SRTWEFSFR gave an amyloid nucleation score of 2.5 ± 0.12.
Under RCSTGRVFSSLDEVLLSRWG stands 4.64 ± 0.048; under PYSTTNGHSGVWLRWLKGPC, 0.569 ± 0.27.
In the case of VSGCV, the amyloid nucleation score was -0.865 ± 0.54.
Under CLIAVNTKGRVVHVYGRTGG stands 3.53 ± 0.093; under VYMGEELVLVISVKDR, “inactive”.
Under NRGSGSAGMVSLLNNSWRWA stands 1.48 ± 0.43.
Under FDILDCDNLELGLYIFILDL stands -1.14 ± 1; under FDTGSRYFFNELRGGNCHCW, 1.26 ± 0.21; under DSVVLGGYGGFAAHKTRVIF, 0.213 ± 0.43.
Substance FSFIGFLNRNKSAALCKMDI gave an amyloid nucleation score of -1.16 ± 0.76.
In the case of VWIAKKGQRSRFQLRSGMCA, the amyloid nucleation score turned out to be 0.641 ± 0.74.
Under AVYYGSMWLGQGGIVPW stands 1.93 ± 0.15; under DVLVSILITPRCHHA, “inactive”; under PRSGSYYTFF, -0.672 ± 1.1.
Under RSYLIKSLVSSLSARWIMMS stands -0.03 ± 0.49; under LERFEH, 2.01 ± 0.24.
Under ERSIARSFRLAADFCSYSRR stands “inactive”; under MSVKSEAGRRSLRMNSKTSR, 0.078 ± 0.22; under SSTHVPLRVFHGEIMWQQIL, -0.291 ± 1.1.
Regarding WLNHYAQLIHRARGHVWNMY, the amyloid nucleation score is -0.685 ± 0.63.
Under YRSWIGYCSNDVSQTLCTVM stands 9.164 ± 0.024.
Under NRFYIWRSDRNYTLVACRSK stands -0.237 ± 0.79.
Under LVSQLPVDFMVTFDILTVEI stands -0.184 ± 1.1; under YGLLGFFGMQCCHNLCMYRG, 2.02 ± 0.13.
The substance CYVSFCKGA showed an amyloid nucleation score of 0.049 ± 0.76.
Under FSFLHFVERLTGHLIYFSRF stands “inactive”; under ILIRLLGSRKQSWNYEIKVL, -0.645 ± 0.37.
SHSVKVMFNGLRVRL displayed an amyloid nucleation score of -0.216 ± 0.63.
Under TNAIYRGVLGSMDQGT stands “inactive”.
Under SAWQRIEWL stands -0.339 ± 0.64; under GGLMRTSPNS, -0.108 ± 1.1.
Under LKDETN stands “inactive”; under NPLYEGSFFWGWKFIDFRQH, 0.131 ± 1.
Regarding CMKAYKIRLLVLEDINSSFS, the amyloid nucleation score was -1.85 ± 0.48.
Under DMERLAGYLQVRSKGMMRHT stands 0.155 ± 0.42; under SFIWKLYMLHWNWRSTEEGE, -0.17 ± 0.65.
Under FFFNYLSCLRNAVNWFNRGM stands “inactive”; under EDIGSVMGVSRAFCWQRAIC, -0.666 ± 0.79.
Under KSVSVGQVRTCPYSFISPVL stands 0.247 ± 1; under RSLSSPSRKLKLTNLWI, -0.226 ± 1.1; under DALGSYWMTAMTF, 0.371 ± 0.44.
Substance GSSYNGNTRLTHVGRSVSVR yielded an amyloid nucleation score of -0.632 ± 0.63.
Under LVIVVT stands 3.1 ± 0.091.
Under IRLPPRRAFHNEFFVDLHRG stands -1.91 ± 0.76; under FNYDSLVSTRAYPFWTVTVF, 1.52 ± 0.43.
Under VSYTHTETTPGLTSLWLVLM stands 6.89 ± 0.077; under ACVTPTAARNQIPALIYDTS, -0.135 ± 0.63; under CSCSVIGWFLHPVATVINLT, 2.73 ± 0.07.
The substance AMQVVTVLNATACEMWAMGL displayed an amyloid nucleation score of 7.498 ± 0.034.
Substance QGAVLTL gave an amyloid nucleation score of -1.12 ± 0.76.
Under VCSMEGYEAVYSRRRELLWS stands 0.08 ± 0.36; under NNRSGYEYVIEFRLTSAVHF, 2.1 ± 0.13; under IRPINGSWGVSTNCKVYDYV, -0.011 ± 1.1.
Under MNGCTTANGIVDTRSNAFTC stands 1.87 ± 0.097; under TYGHDKLRVSNIEHQLPGRA, 0.306 ± 0.64; under CNDGGENGWKCTGR, 0.497 ± 0.57.
Under FLLDAPKLAEDEYPHGSDDN stands “inactive”; under NQLDTNSIMLVFLSNMMLGV, 3.81 ± 0.056.
Take PRFAYCSSIANKMMGVG: the amyloid nucleation score is 2.36 ± 0.18.
Under TFMAIRSLNSSASGWATGF stands 3.01 ± 0.049.
In the case of NILTRYS, the amyloid nucleation score was -0.013 ± 0.31.
Under SWTCFTLVVRRTAGYWVWSA stands 0.331 ± 0.33.
Substance MNASDIKTFKL returned an amyloid nucleation score of -0.531 ± 1.1.
Under MIHYKYGFPNMGIRTYVSFV stands 1.47 ± 0.26; under RVVCLLKGRWFALVLPDYCR, 0.479 ± 0.8; under RHKMWVFRT, “inactive”.
SFVAAEQIMASIEW: the amyloid nucleation score was 0.706 ± 0.29.
Under TTMIAVVRFTRD stands 2.07 ± 0.29; under YYLTT, -1.6 ± 1.
Under TSANLLLYRVLKSFLARQHQ stands 0.062 ± 0.46; under SIKNHRDREILAMPGVSRSA, “inactive”; under RRISSKECLYRWGALWYIEI, 0.086 ± 0.61.
Under FSDIWPLRP stands 0.806 ± 0.15; under DPKVVMLVMTDMLNFG, 5.71 ± 0.06.
Regarding CTVRDSMAGIYLVDLVSCIR, the amyloid nucleation score was -0.21 ± 0.6.
Under ADCFWAIDYPTWAYRIYGSH stands “inactive”; under GVNRAWL, 3.35 ± 0.06; under ENATFLATCI, -0.217 ± 0.79.
As to VFVSWILFTVSPFIIRYRVN, the amyloid nucleation score was -1.72 ± 0.75.
Under VDDWSADIMKGDRVLYS stands “inactive”.
Under HFFTQY stands 2.95 ± 0.1.
Under IIIGFWVCWNSIASWSIVGR stands -1.78 ± 1.1; under LVCELYI, -0.171 ± 0.39; under AGPAQQYMCMTCVTSVHTDP, 8.84 ± 0.045.
In the case of LAKWGKLCCVLYQYPVSLGE, the amyloid nucleation score was found to be 0.71 ± 0.28.
Under MCVCCYSIRGLVTGWLWLMA stands 4 ± 0.061; under SLHLRRYIFNT, 7.339 ± 0.059; under PISTSFYRMSILEYGSR, -0.529 ± 0.64.
Under KFNGPKIVYFISTSMVLLVS stands -0.406 ± 1.1; under FTAFWGYSTSVFHMDMCLRK, 2.17 ± 0.071.
Under VSMAIFGSSNILYSIRSLLE stands 4.37 ± 0.082; under YSIIFWCFKWYLIQGWLECA, “inactive”.
In the case of RRWTHKEPIKASLVRRFLRV, the amyloid nucleation score result was “inactive”.
Under VVAMDRCLQPVFLHLLSNNF stands “inactive”.
Under TCLSRVPPS stands -0.797 ± 0.61.
Under ALRYVMRLY stands 2.53 ± 0.11.
In turn, CNYRVA registered an amyloid nucleation score of 0.276 ± 0.39.
LHIDGNENRFLHRDGKRQEA: the amyloid nucleation score came out at 0.245 ± 0.39.
Under ICFNDILQFTS stands -0.498 ± 0.44; under YVNDIRSKNPALEHEGDL, -0.58 ± 0.55.
Under LYKRMYECRRYFLMWNYRGF stands “inactive”; under GSMSTSASVRPFWRYVFLH, “inactive”.
Under TTDCSNDLSAILVCLSHGAL stands -0.19 ± 1.
Substance YWKVCRM returned an amyloid nucleation score of 0.356 ± 0.74.
Under ISIYIITVILFLVDALYMLR stands -0.809 ± 1.1; under SLMFKRRK, 0.317 ± 0.28.
Under PTRCRVSYKRLRCSQLSLQL stands -0.012 ± 0.79; under YMNSSLARISPRGSRCERQ, 0.162 ± 0.38; under SCAHKELCQSVLRDVYWCTL, -0.224 ± 0.79.
In the case of YGGDLYLIFDLLDRVILL, the amyloid nucleation score entry was “inactive”.
Under TSRKTEFQPFAGSICLYMGI stands 0.18 ± 0.63; under CYMVRGYSFSNRWTAHGHEM, 2.51 ± 0.21; under VFDEVVVDTLKWWSCVSAGI, -0.484 ± 0.54.
Under MTSFGYHMNLCH stands 0.072 ± 1.1; under FVGVYMVLRSLGDRVSYVMF, “inactive”.
Under SFELFCVWGR stands -0.827 ± 0.54; under GTSRLNVEGGLYCRGSIVDV, -0.299 ± 0.37.
In turn, QYYELWSFTDWVWDLWGVQS yielded an amyloid nucleation score of -0.568 ± 0.63.
Under VRSYNVKYCSRRNLICGDG stands -0.019 ± 0.41.
